In patent US20200216506A1 (CHILDREN S MEDICAL CENTER, published 2020):

Experiments:
IKKβ = molecular target: T1, IKKβ (UniProt O88351 1-757); experiment: MyD88 co-immunoprecipitation from LPS-stimulated iBMDMs, western blot (FIG. 74A)
T1 sequence (looked up): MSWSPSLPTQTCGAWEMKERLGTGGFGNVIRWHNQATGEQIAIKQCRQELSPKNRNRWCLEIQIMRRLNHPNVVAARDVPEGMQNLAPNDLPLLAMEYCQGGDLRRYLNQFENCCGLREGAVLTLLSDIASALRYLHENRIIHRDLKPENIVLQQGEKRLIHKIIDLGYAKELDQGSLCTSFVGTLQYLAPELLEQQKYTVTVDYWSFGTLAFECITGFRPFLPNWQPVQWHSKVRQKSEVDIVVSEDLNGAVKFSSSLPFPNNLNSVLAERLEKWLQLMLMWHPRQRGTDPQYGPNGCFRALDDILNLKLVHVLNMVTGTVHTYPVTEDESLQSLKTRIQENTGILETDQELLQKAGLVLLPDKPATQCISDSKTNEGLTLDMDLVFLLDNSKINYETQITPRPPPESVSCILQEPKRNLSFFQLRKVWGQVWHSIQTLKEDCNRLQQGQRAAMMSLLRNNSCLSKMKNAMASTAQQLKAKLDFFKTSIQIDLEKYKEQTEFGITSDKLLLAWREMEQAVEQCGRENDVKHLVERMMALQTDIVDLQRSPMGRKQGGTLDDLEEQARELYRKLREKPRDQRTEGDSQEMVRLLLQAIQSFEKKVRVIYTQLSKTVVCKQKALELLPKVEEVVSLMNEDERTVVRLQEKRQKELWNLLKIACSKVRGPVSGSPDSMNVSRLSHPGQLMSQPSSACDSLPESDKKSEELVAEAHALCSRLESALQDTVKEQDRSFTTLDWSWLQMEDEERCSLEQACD
From the text: (§1) Data represent mean±SEM of triplicate wells. […] Data represent mean±SEM of triplicate wells.

NEMO = NEMO (UniProt O88522 1-412); experiment: as above
Chain of NEMO (O88522 whole entry): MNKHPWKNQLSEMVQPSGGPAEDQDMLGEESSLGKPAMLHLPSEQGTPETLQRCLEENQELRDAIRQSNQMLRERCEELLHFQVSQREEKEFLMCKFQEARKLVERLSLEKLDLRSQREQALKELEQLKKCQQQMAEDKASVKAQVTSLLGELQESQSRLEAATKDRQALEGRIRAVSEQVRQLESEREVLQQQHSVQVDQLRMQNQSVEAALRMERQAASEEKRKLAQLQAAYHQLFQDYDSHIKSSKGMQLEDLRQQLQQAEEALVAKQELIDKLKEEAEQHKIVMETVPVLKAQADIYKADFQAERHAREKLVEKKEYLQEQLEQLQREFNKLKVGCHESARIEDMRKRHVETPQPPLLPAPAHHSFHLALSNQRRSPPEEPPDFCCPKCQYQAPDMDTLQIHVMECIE
From the text: as §1

- binding result (IKKβ): no binding
- binding result (NEMO): no binding
B1: MyD88 (other, UniProt P22366 1-296, looked up)
chain: MSAGDPRVGSGSLDSFMFSIPLVALNVGVRRRLSLFLNPRTPVAADWTLLAEEMGFEYLEIRELETRPDPTRSLLDAWQGRSGASVGRLLELLALLDREDILKELKSRIEEDCQKYLGKQQNQESEKPLQVARVESSVPQTKELGGITTLDDPLGQTPELFDAFICYCPNDIEFVQEMIRQLEQTDYRLKLCVSDRDVLPGTCVWSIASELIEKRCRRMVVVVSDDYLQSKECDFQTKFALSLSPGVQQKRLIPIKYKAMKKDFPSILRFITICDYTNPCTKSWFWTRLAKALSLP
notes: Adaptor protein and core of the myddosome; also called endogenous MyD88; myeloid differentiation primary response gene 88
